Broadly, the Kd is the constant that tells how readily two partners part at equilibrium. A word on the koff: it is the first-order rate constant of dissociation. Usually kon stands for the rate constant with which the complex forms.

In experiment [1] the target is T1, biotinylated anti-human CD3 IgG (anti-CD3 P035.093) (biotinylated (site not stated)).
T1 construct: IgG format of this reagent is not described further; immobilised on a CAP chip; also called CD3 IgG (P035.093)
Kind of experiment: SPR; biotinylated anti-CD3 P035.093 IgG on CAP chip, anti-idiotypic IgG at 1 µg/ml; response normalised to anti-human IgG surface and to the unstressed sample; after 14 d at 37 °C pH 7.4. As to the method:
Therefore, they were analyzed for thermal stability and remaining target binding after 14 d stress conditions (40° C. at pH6.0 or 37° C. at pH7.4).
(§1) Flow cell 1 was kept as mock surface. […] Dissociation was monitored for 30 s, the flow rate was set to 5 μl/min. The CAP chip was regenerated by injecting a mix of NaOH and Guadinium-hydrochloride for 120 s, provided in the biotin capture kit. Bulk refractive index differences were corrected by subtracting the response obtained from flow cell 1 (mock surface).

In experiment [2] the target is T2, FOLR1 CD3 TCB P035.093.
T2 construct: Classical 2+1 TCB, knob-into-hole, PGLALA; the common light chain pairs with each of the Fabs; also called FOLR1 TCB CD3: P035.093
As to the kind of experiment: SPR, Biacore T200, 37 °C; FOLR1 CD3 TCB P035.093 captured on FOLR1-Fc (C1 chip), anti-idiotypic antibody as analyte; n=5; Stdev 198 s. Here is the method:
(§2) Briefly, FOLR1-Fc was immobilized on a series s sensor chip C1 using standard amine coupling chemistry according to the manufacturer's instructions. […] The first flow cell was kept as mock surface. […] Dissociation was monitored for 300 s, the flow rate was set to 30 μl/min. The surface was regenerated by injecting 10 mM Glycine pH 2.0 for 60 s, followed by injecting 5 mM NaOH for 60 s at a flow rate of 5 μl/min. Bulk refractive index differences were corrected by subtracting the response obtained from flow cell one (mock surface) as well as by substracting buffer injections (double referencing). The derived curves were fitted to a 1:1 Langmuir binding model using the BIAevaluation software (GE Healthcare). […] All experiments were performed at 37° C. using HBS-N (10 mM HEPES, 150 mM NaCl pH 7.4, 0.05% Surfactant P-20).

Experiment [3] deals with T1, biotinylated anti-human CD3 IgG …. As to the kind of experiment: SPR; biotinylated anti-CD3 P035.093 IgG on CAP chip, anti-idiotypic IgG at 1 µg/ml; response normalised to anti-human IgG surface and to the unstressed sample; after 14 d at 40 °C pH 6.0. Here is the method: as §1
(In general: In SPR one partner is held on a chip, and binding of the other changes the refractive index at the surface.)

Experiment [4] addresses T2, FOLR1 CD3 TCB P035.093. As to the kind of experiment: SPR, Biacore T200, 37 °C; FOLR1 CD3 TCB P035.093 captured on FOLR1-Fc (C1 chip), anti-idiotypic antibody 1.2-100 nM as analyte; 1:1 Langmuir fit; n=5; Stdev 0.5 nM. Here is the method: as §2
Experiment [5] concerns the target T2, FOLR1 CD3 TCB P035.093. Kind of experiment: SPR, Biacore T200, 37 °C; FOLR1 CD3 TCB P035.093 captured on FOLR1-Fc (C1 chip), anti-idiotypic antibody 1.2-100 nM as analyte; 1:1 Langmuir fit; n=5; Stdev 1.0 nM. Here is the method: as §2
The target of experiment [6] is T2, FOLR1 CD3 TCB P035.093. As to the kind of experiment: SPR, Biacore T200, 37 °C; FOLR1 CD3 TCB P035.093 captured on FOLR1-Fc (C1 chip), anti-idiotypic antibody as analyte; n=5; Stdev 156 s. Here is the method: as §2
In experiment [7] the target is T2, FOLR1 CD3 TCB P035.093. As to the kind of experiment: SPR, Biacore T200, 37 °C; FOLR1 CD3 TCB P035.093 captured on FOLR1-Fc (C1 chip), anti-idiotypic antibody as analyte; n=5; Stdev 222 s. As to the method: as §2
The target of experiment [8] is T2, FOLR1 CD3 TCB P035.093. As to the kind of experiment: SPR, Biacore T200, 37 °C; FOLR1 CD3 TCB P035.093 captured on FOLR1-Fc (C1 chip), anti-idiotypic antibody as analyte; n=5; Stdev 66 s. Here is the method:
as §2

In experiment [9] the target is T2, FOLR1 CD3 TCB P035.093. Kind of experiment: SPR, Biacore T200, 37 °C; FOLR1 CD3 TCB P035.093 captured on FOLR1-Fc (C1 chip), anti-idiotypic antibody 1.2-100 nM as analyte; 1:1 Langmuir fit; n=5; Stdev 0.6 nM. Here is the method: as §2
In experiment [10] the target is T3, TCB with CD3 binding Fab P035.093 (analyte of Table 9).
T3 construct: not shown: Target-cell arm (TYRP1 or FOLR1 16D5), constant regions and Fc
As to the kind of experiment: SPR, Biacore T200; anti-idiotypic IgG amine-coupled on CM5 chip, TCB as analyte; 1:1 Langmuir fit; single dilution series. Here is the method: (§3) SPR experiments were performed on a Biacore T200 with HBS-EP+ as running buffer (0.01 M HEPES pH 7.4, 0.15 M NaCl, 0.005% Surfactant P20 (BR-1006-69, GE Healthcare)). Three anti-idiotypic antibodies were directly immobilized by amine coupling on a CMS chip (GE Healthcare). A three-fold dilution series of the different T cell bispecifics (TCBs) was passed 20 over the ligand at 30 μl/min for 180 sec to record the association phase. The dissociation phase was monitored for 600 s and triggered by switching from the sample solution to HBS-EP+. The chip surface was regenerated after every cycle using one injection of 10 mM glycine pH 2.1 for 60 sec, followed by two injections of 30 sec. Bulk refractive index differences were corrected for by subtracting the response obtained on the reference flow cell 1. The affinity constants were derived from the kinetic rate constants by fitting to a 1:1 Langmuir binding using the Biaeval 5 software (GE Healthcare). The measure was performed with a single dilution series.
(§4) SPR analysis was evaluated with masks as IgGs (immobilized on CM5 chip) and TCBs with different CD3 binding Fabs as analytes.

Experiment [11] deals with T4, TCB with CD3 binding Fab CH2527 (analyte of Table 9).
T4 construct: also called CD3 CH2527; not shown: Target-cell arm (TYRP1 or FOLR1 16D5), constant regions and Fc
Described as above. As to the method:
as §3, §4

For experiment [12], the target named is TYRP1 TCB containing optimized anti-CD3 antibody clone P035.093. As to the kind of experiment: cell-based or functional assay.
Experiment [13] deals with TYRP1 TCB with CD3 binder CH2527. Kind of experiment: cell-based or functional assay.
Experiment [14] has as its target T2, FOLR1 CD3 TCB P035.093. As to the kind of experiment: SPR, Biacore T200, 37 °C; FOLR1 CD3 TCB P035.093 captured on FOLR1-Fc (C1 chip), anti-idiotypic antibody as analyte; n=5; Stdev 140 s. As to the method:
as §2

In experiment [15] the target is T2, FOLR1 CD3 TCB P035.093. Kind of experiment: SPR, Biacore T200, 37 °C; FOLR1 CD3 TCB P035.093 captured on FOLR1-Fc (C1 chip), anti-idiotypic antibody 1.2-100 nM as analyte; 1:1 Langmuir fit; n=5; Stdev 0.4 nM. As to the method: as §2

Numbering of substitutions follows the chain as printed.

T1 sequence (VH, as listed by the source, chain 1 of 2): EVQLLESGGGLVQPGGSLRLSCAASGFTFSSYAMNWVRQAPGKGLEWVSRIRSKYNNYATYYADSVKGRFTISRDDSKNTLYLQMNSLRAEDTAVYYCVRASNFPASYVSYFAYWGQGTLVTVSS
T1 sequence (VL, as listed by the source, chain 2 of 2): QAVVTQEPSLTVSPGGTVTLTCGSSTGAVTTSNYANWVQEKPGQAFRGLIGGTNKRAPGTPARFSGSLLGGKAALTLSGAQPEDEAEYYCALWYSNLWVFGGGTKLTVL

B1: Humanized variant H1L2 of anti-idiotypic antibody 4.24.72 (IgG) (antibody, V domains shown)
VH: QVQLVQSGSELKKPGASVKVSCKASGYTVTDYSMNWVRQAPGQGLEWMGWINTETGEPRYTDDFKGRFVFSLDTSVSTAYLQISSLKAEDTAVYYCAREGDYDVFDYWGQGTLVTVSS
VL: DIVMTQSPDSLAVSLGERATINCKSSKSVSTSSYSYMHWYQQKPGQPPKLLIKYVSYLESGVPDRFSGSGSGTDFTLTISSLQAEDVAVYYCQHSREFPYTFGQGTKLEIK
notes: Produced and purified as IgG; also called Mask humanization variant H1L2
Consider B1, for which the “Rel. active concentration [%]” value in [1] is 94%; in [3] it was 97%. Besides, the “t1/2 diss” value with FOLR1 CD3 TCB P035.093 [2] was 6.6 min. Binding with FOLR1 CD3 TCB P035.093 [4] was characterised by a dissociation constant (Kd) of 1.2 nM.

B2: Humanized variant H2L2 of anti-idiotypic antibody 4.24.72 (IgG) (antibody, V domains shown)
VH: B1 VH with K65T
VL: B1 VL
notes: Produced and purified as IgG; also called Mask humanization variant H2L2
Regarding B2, the “Rel. active concentration [%]” value in experiment [1] came out at 93%; in experiment [3], 98%. In addition, in the experiment with FOLR1 CD3 TCB P035.093 [5], the Kd worked out at 1.8 nM. Moreover, the “t1/2 diss” value in the experiment with FOLR1 CD3 TCB P035.093 [6] was 6.2 min.

B3: Humanized variant H3L2 of anti-idiotypic antibody 4.24.72 (IgG) (antibody, V domains shown)
VH: B1 VH with D62Q, D63G
VL: B1 VL
notes: Produced and purified as IgG; also called Mask humanization variant H3L2
As to B3, the “Rel. active concentration [%]” value in experiment [1] came out at 94%; in [3], 97%. The same molecule gave a dissociation constant Kd with FOLR1 CD3 TCB P035.093 [4] of 1.1 nM. For the same molecule, the “t1/2 diss” value with FOLR1 CD3 TCB P035.093 [7] stood at 7.67 min.

B4: Humanized variant H1L1 of anti-idiotypic antibody 4.24.72 (IgG) (antibody, V domains shown)
VH: B1 VH
VL: B1 VL with K24R, S25A
notes: Produced and purified as IgG; also called Mask humanization variant H1L1
For the molecule B4, the “Rel. active concentration [%]” value in experiment [1] is 93%; in experiment [3], 99%. In the experiment with FOLR1 CD3 TCB P035.093 [8], the “t1/2 diss” value came to 6.18 min. Moreover, the dissociation constant (Kd) in the experiment with FOLR1 CD3 TCB P035.093 [9] was found to be 1.8 nM.

B5: Anti-idiotypic IgG 4.24.72 (parental chimeric antibody) (antibody, V domains shown)
VH: QIQLVQSGPELKKPGETVKISCKASGYTVTDYSMNWVKQAPGKCLKWMGWINTETGEPRYTDDFKGRFAFSLETSASTAYLQINNLKNEDSATYFCAREGDYDVFDYWGHGTTLKVSS
VL: DIVLTQSPASLAVSLGQRATISCRASKSVSTSSYSYMHWYQQKPGQPPKLLIKYVSYLESGVPARFSGSGSGTDFTLNIHPVEEEDAATYYCQHSREFPYTFGCGTKLEIK
notes: Tested as chimeric IgG; also called ID_4.24.72
For the molecule B5, in [10], the dissociation constant (Kd) is 2.1 nM, the off-rate (koff) is 0.000309 s⁻¹ and the kon stood at 148000 M⁻¹ s⁻¹. In [11], the Kd was determined as 4.7 nM, the koff amounted to 0.000675 s⁻¹ and the on-rate (kon) amounted to 141000 M⁻¹ s⁻¹. Besides, the “IC50 (read off the curve): reduction of Jurkat NFAT luminescence by anti-ID 4.24.72 IgG, TYRP1 TCB (CD3 variant P035.093) at EC90” value in experiment [12] is ~1 nM. For the same molecule, the “IC50 (read off the curve): reduction of Jurkat NFAT luminescence by anti-ID 4.24.72 IgG, TYRP1 TCB (CH2527) at EC90” value in experiment [13] is ~1 nM. The “t1/2 diss” value with FOLR1 CD3 TCB P035.093 [14] stood at 7.43 min. The same molecule registered a Kd in the experiment with FOLR1 CD3 TCB P035.093 [15] of 1.5 nM.

The record behind these values is US20230287145A1 (Hoffmann-La Roche, published 2023).
